Results on 2 molecules are retold here after patent US20150346208A1 (SPRING BIOSCIENCE, published 2015).

In test [1] the target is T1, human PD-L1 (Programmed death ligand-1) (human, UniProt Q9NZQ7 19-290).
T1 construct: whole, on cells; Endogenous protein; For IHC it was in formalin-fixed, paraffin-embedded tissue sections; for the Western blot it was in SDS-PAGE-fractionated cell lysates (45-55 kDa band); also called B7-H1; PDCD1L1
The test is described as follows: IHC on FFPE placenta, 0.9 µg/ml. Here is the method:
Rabbit anti-human PD-L1 monoclonal antibodies SP263, J45H2L4 and J27H6L4 were applied onto formalin-fixed paraffin embedded (FFPE) tissue samples to assess the staining patterns of these antibodies. Tissue samples include placenta (positive control), stomach (negative control) and colon. Immunohistochemistry was performed on BenchMark Ultra (Ventana Medical System) using StdCC1 cell conditioning and standard Opt iView DAB detection protocol. Each primary antibody was incubated at 0.9 μg/ml for 16 min.

The target of test [2] is T2, peptide immunogen CGIQDTNSKKQSDTHLEET (human PD-L1 aa 272-290) (human).
T2 construct: Synthetic peptide, immobilized in the ELISA; also called immobilized peptide immunogen; 19-amino acid peptide
T2 peptide: CGIQDTNSKKQSDTHLEET
The test is described as follows: ELISA, immobilized peptide immunogen (human PD-L1 aa272-290). Here is the method: ELISA studies were performed with the SP263 antibody to evaluate binding to the immobilized peptide immunogen (human PD-L1 aa272-290).
In general terms: ELISA stands for enzyme-linked immunosorbent assay.

Test [3] has as its target T1, human PD-L1 (Programmed death ligand-1). The test is described as follows: IHC on FFPE placenta, 0.11-28 µg/ml.

T1 sequence (Q9NZQ7 19-290): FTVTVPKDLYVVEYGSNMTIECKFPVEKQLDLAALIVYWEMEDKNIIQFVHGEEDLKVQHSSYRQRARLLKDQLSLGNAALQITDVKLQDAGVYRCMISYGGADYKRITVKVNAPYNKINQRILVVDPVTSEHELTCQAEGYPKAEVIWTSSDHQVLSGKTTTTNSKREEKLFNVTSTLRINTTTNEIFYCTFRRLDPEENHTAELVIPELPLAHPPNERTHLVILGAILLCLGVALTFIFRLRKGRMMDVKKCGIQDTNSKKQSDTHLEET

B1: J45H2L4 rabbit anti-human PD-L1 monoclonal antibody (antibody, V domains shown)
VH: QSLEESGGRLVTPGTPLTLTCTASGFSLSSNAISWVRQAPGKGLEWIGTINSDSHIYSATWAKGRFTISKTSTAVDLKMTSPTTEDTATYFCAGRLFSSTNIWGPGTLVTVSS
VL: VMTQTSSPVSAAVGGTVTINCQASQSIYKDNWLSWFQQKPGQPPKLLIYLASTLASGVPSRFKGSGSGTQFTLTISDVVCDDAATYYCLGGESSSDDGIAFGGGTEVVVK
notes: the rabbit constant regions are not; also called anti-PD-L1 antibody clone J45H2L4
In the case of B1, the binding result in test [1] is on record as “binds”.

B2: SP263 rabbit anti-human PD-L1 monoclonal antibody (antibody, V domains shown)
VH: QSLEESGGRLVTPGTPLTLTCTASGFSLSNHAISWVRQAPGKGLEWIGTINSDTHTYYATWPKGRFTISKTSSTTVDLKMTSPTTEDTATYFCARRIFSSSNIWGPGTLVTVSS
VL: AIVMTQTSSPVSAVVGGTVAINCQASQSIYNNNWLSWFQQKPGQPPKLLIYLASTLASGVPSRFKGSGSGTQFTLTISDVVCDDAATYYCIGGESSNNDGIAFGGGTEVVVK
notes: the rabbit constant regions are not; also called SP263 anti-PD-L1 antibody
As for B2, a half-maximal effect in test [2] (EC50) was put at 0.015 nM. The binding result in test [3] is “binds”.

As a reminder, the EC50 is the concentration needed to bring the measured effect to its halfway point. A higher EC50 goes with a need for much substance.
